Source: publication PMC2217671

Substrate: NCCC[C@H](N)C(=O)O
Test: purified protein
Conditions: 200 uM PLP, 12.5 mM DTT, 250 mM Tris pH 7.5, 37 °C, 0.002% BRIJ-35 added, enzyme unstable, low activity

B1: recombinant E. histolytica putative ornithine decarboxylase (ODC)-like protein (Entamoeba histolytica) (protein)
chain: MKQTSLEVKEFALNLISQFEPENQPLGFWIFDTEGVEKAVERWKKNMPTVRPCFAVKCNPEPHLVKLLGELGCGFDCASLNEIKEVLDLGFNPEDITYSQTFKPYNQLIEASHLGINHTIVDSIDEVQKIAKYAPKMGIMIRIMENDTSAGHVFGEKFGLHDDEVEIVLKEIKDKGLNLDGVHFHVGSDSHNSEVFTKALTKARNTVTLAEQFGMKPYLIDIGGGFSQVAPFEEFAATIEKTIKELEFPERTRFIAEPGRYMASNAFHLVSSLHGKRVRIQNGKKQIEYTSGDGLHGSFGCCIWFEKQKSCECITQKVNENTKMYESIIYGPSCNGSDKVATQELPEMEPGKDWLLFPNMGAYTISMATNFNGFEERNHVIYTLPLKSTKIIQIPKSIECNSVPSLNGIPHYA
  Km: 1500 µM
